# Patent US20240262917A1, “ANTIBODIES AGAINST ALK AND METHODS OF USE THEREOF” (Dana-Farber Cancer Institute, Inc., priority 2021, published 2024)
# Tests used:
# Format in all cases: binding
# ALK receptor = target: T1, ALK receptor (Homo sapiens, UniProt Q9UM73, F1174L); experiment: Immunofluorescence detection of ALK
# T1 construct: expressed in transfected cells; host or cells: SHEP neuroblastoma cells
# From the text: (A) IF images (40×) of NGP neuroblastoma cells expressing wild type ALK stained with the 8G7 antibody. A 1:100 antibody dilution was used. […] The last plasmid serves as a negative control similar to NIH3T3-MSCV cells in which the vector only is expressed.
# Immunofluorescence detection of ALK with 8G7 and 7F7 antibodies in SHEP NB cells engineered to express the ALKF1174L mutation. Staining with the M13 antibody obtained from the Vigny laboratory under an MTA is shown for comparison (Moog-Lutz et al, 2005). Cells expressing the vector only (SHEP) were used as controls. Cells were stained with a 1:100 dilution of antibody. Images were captured at 40× with a Zeiss AXIO Imager Z1 fluorescence microscope.
# Cells (0.5×10^6 per well) were seeded into six-well plates and grown on glass coverslips for 24 hr. before fixation in 4% paraformaldehyde in PBS for 15 min at room temperature (RT), washed with PBS, permeabilized in 0.1% Triton X-100, and blocked with PBS containing 0.05% Tween-20 and 5% BSA for 1 hr. to block nonspecific binding. Then, cells were incubated with the 8G7 antibody (1:100) overnight at 4° C. After washing with PBS, cells were incubated with AlexaFluor 568-conjugated secondary antibody for 1 hr. at 25° C. Images were collected on a Zeiss AXIO Imager Z1 fluorescence microscope. […] After 24 hours, cells were washed once in PBS, fixed in 4% paraformaldehyde in PBS, washed, permeabilized in 0.1% Triton X-100, and blocked in PBS containing 10% horse serum. […] The next day, cells were washed, incubated in goat anti-rabbit IgG secondary antibody (1:1000) for 1 hr. washed, and incubated in Streptavidin-TexasRed (1:1000) for 1 hr. Cover slips were mounted onto slides using mounting medium containing DAPI. Images were collected on a Zeiss AXIO Imager Z1 fluorescence microscope.
# [1] = target: T2, ALK extracellular fragment (Homo sapiens, UniProt Q9UM73); experiment: Sandwich ELISA of shed ALK ECD in patient sera; conditions: sera of patients with ALK-expressing neuroblastoma
# T2 construct: conditioned media containing the shed ALK (ALK 1-654) ECD fragment; from tissue; host or cells: serum of neuroblastoma patients
# T2 sequence (Q9UM73 19-654): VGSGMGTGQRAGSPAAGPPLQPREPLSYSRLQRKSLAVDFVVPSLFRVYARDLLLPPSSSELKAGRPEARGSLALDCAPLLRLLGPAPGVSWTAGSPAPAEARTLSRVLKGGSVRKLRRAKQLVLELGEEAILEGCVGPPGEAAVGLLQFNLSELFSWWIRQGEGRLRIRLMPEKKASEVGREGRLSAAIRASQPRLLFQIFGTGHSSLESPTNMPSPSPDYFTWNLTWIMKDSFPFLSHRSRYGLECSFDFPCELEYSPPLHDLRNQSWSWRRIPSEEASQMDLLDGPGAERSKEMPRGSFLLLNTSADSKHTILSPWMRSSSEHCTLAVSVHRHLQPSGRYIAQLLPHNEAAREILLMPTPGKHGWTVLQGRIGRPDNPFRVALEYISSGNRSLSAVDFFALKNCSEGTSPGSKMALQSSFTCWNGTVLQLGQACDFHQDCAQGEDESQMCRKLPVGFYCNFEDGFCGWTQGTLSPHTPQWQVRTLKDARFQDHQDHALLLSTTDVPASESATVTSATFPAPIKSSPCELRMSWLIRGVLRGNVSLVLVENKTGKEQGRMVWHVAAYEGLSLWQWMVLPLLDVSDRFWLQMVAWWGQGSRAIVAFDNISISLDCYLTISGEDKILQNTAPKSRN
# From the text: Detection of the purified ALK-ECD protein using 8G7 (detection) and 7F7 (capture) anti-ALK antibodies by sandwich ELISA. (A) Standard curve showing the gradual increase in signal with increasing concentrations of the ALK-ECD protein in the media of NGP cells that express cleaved ALK. Quantification is shown below. (B) ELISA of the shed ALK ECD protein in sera from patients with neuroblastoma. Ample diluent buffer was used to dilute the serum samples, Media represents Dulbecco's Modified Eagle media in which human embryonic kidney 293T cells were grown, 293T media, conditioned media from 293T cells; ALK ECD 293T media, media collected from 293T cells in which the ALK-ECD-mFc protein was overexpressed.
# We developed a sandwich ELISA technique where two ALK antibodies (for example, 5H3 or 7F7) can be used to capture the ALK extracellular fragment (antigen), and another antibody, such as the 8G7 antibody, can be used to detect the captured ALK extracellular fragment-5H3 or 7F7 complex. The different epitope binding sites of these antibodies on the ALK extracellular fragment protein allow for the development of the sandwich ELISA technique for the detection of the cleaved or shed ALK extracellular fragment in patient serum samples (FIG. 18). […]
# ALK = ALK (Homo sapiens, UniProt Q9UM73); experiment: Screening and subcloning of hybridomas (ELISA, FCM, functional assays); set-up: The human ALK extracellular domain (19-682 aa) fused to the mouse Fc gene; made in house; host or cells: 293T cells; conditions: after subcloning by limiting dilution
# Chain of ALK (Q9UM73 19-682): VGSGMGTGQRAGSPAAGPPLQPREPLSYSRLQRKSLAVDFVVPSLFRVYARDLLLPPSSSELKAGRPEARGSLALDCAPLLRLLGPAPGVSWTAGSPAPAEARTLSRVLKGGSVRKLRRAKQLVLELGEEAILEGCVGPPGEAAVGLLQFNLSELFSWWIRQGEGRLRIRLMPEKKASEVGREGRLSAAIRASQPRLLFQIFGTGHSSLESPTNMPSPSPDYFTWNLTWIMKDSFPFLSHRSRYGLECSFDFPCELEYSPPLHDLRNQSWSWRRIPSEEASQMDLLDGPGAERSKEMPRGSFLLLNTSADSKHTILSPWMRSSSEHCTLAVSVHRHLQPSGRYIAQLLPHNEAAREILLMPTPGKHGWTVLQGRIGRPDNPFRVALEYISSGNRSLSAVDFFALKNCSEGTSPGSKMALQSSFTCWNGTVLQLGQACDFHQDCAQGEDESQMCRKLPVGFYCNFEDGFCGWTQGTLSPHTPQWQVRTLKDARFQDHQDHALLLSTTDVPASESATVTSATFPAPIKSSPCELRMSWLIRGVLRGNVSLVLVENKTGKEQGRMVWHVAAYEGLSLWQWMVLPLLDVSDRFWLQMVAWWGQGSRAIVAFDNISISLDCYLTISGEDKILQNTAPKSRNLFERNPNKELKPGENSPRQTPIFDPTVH
# Procedure: HAT-selected fused cells were distributed in 96 well plates and the hybridoma supernatants were subjected to several rounds of screening. Initial screening was performed using ELISA against human Fc to test antigen binding with the ALK ECD-human Fc fusion protein. […] These were rescreened by FACS against Ba/F3 and neuroblastoma (NB) cells expressing ALK. From this screen, 22 positive hybridoma supernatants were tested in an antigen-binding capture ELISA assay and 11 were subsequently selected for further analysis. (A) Binding of hybridoma supernatants using an antigen-binding capture assay. The plate was coated with goat-anti-mouse IgG Fc, incubated with hybridoma supernatants, followed by ALK-HRP and visualized using an HRP substrate. (B) Binding of selected hybridoma supernatants to a human Fc antibody using ELISA screening. Plates were coated with the ALK ECD-human Fc fusion protein (ALK-hFc) together with an irrelevant hFc protein and visualized using an anti-mouse kappa light chain antibody. Only the supernatants with the highest binding are shown.
# Supernatants from individual clones were then screened by ELISA and FACS analysis for ALK binding. Shown here is the viability of NGP neuroblastoma cells (expressing ALK) in the presence of anti-mouse IgG antibody in hybridoma clone supernatants. […]
# T1 sequence (Q9UM73 19-1620 F1174L): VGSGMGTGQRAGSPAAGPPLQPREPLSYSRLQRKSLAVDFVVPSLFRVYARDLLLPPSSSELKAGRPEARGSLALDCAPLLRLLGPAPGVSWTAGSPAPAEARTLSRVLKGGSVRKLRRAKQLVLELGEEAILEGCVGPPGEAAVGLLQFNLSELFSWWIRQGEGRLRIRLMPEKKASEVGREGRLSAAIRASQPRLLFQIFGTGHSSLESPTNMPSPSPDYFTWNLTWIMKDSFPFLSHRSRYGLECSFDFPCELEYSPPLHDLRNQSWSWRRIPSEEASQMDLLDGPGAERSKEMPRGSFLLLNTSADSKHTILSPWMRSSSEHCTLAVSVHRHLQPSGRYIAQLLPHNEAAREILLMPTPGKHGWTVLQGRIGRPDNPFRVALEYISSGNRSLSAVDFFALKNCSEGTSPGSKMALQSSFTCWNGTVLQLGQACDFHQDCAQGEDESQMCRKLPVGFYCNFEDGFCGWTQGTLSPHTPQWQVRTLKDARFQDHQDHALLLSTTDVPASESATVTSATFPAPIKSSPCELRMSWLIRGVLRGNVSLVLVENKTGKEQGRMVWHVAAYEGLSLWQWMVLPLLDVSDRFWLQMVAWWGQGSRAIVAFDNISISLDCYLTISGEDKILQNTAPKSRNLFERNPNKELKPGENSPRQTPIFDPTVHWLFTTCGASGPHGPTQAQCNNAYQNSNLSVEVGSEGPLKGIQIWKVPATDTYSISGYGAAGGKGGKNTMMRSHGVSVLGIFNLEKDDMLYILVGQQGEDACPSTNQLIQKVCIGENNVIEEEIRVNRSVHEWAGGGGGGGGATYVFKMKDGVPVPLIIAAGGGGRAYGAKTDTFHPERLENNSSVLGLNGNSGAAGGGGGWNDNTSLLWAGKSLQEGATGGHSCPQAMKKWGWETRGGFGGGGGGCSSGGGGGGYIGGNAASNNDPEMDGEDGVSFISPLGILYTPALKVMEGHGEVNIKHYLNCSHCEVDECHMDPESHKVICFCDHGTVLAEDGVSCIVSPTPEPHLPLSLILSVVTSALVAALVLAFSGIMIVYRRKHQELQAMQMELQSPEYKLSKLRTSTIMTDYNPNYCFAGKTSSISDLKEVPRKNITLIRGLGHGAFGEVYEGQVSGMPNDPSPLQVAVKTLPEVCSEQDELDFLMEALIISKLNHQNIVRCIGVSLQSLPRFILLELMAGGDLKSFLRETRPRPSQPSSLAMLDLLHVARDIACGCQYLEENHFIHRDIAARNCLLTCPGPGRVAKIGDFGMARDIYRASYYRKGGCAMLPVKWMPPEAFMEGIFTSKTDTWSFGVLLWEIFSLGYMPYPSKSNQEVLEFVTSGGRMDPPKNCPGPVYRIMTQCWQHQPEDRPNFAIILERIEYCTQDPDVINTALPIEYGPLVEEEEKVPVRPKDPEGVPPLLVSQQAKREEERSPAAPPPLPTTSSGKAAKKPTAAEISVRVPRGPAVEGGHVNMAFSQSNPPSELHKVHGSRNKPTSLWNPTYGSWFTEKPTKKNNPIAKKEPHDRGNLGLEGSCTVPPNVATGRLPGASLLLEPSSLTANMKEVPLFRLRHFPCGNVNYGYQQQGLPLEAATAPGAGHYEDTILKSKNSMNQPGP
molecule,measurement,setting,value
"8G7: murine monoclonal IgG1 anti-ALK antibody to the N-terminal ECD of human ALK; VH SEQ ID NO: 3, VL SEQ ID NO: 4 (antibody, V domains shown) VH: QVQLQQSGAELVRPGASVTLSCKASGYTFTDYEMHWVKQTPVHGLEWIGAIDPETGGSAYNQKFKAKAILTADRSSSTAYMELRSLTSEDSAVYYCTRTRYYGSSPAMDYWGQGTSVTVSS VL: DIQMTQTTSSLSASLGDRVTISCSASQGIGNYLNWYQQKPDGTVKLLIYYTSSLHSGVPSRFSGSGSGTDYSLTISNLEPEDIATYYCQQYSKLPYTFGGGTKLEIK",recognition of ALK lacking the majority of the ECD in immunofluorescence,"ALK receptor; NIH3T3-ALK-del MAM2 to 654 aa, negative control",not recognized
same,binding to the ALK receptor in immunofluorescence,"ALK receptor; SHEP NB cells engineered to express the ALKF1174L mutation, 1:100 dilution of antibody",bind to the ALK receptor in immunofluorescence assays
same,recognition of ALK at the cell surface,"ALK receptor; immunofluorescence, immunocytochemistry and immunohistochemistry","recognize ALK at the cell surface by immunofluorescence, immunocytochemistry and immunohistochemistry"
same,recognition of circulating ALK extracellular fragment in sera,[1],recognize the circulating ALK extracellular fragment in the sera of patients with ALK-expressing neuroblastoma
same,ALK specificity of the clone's monoclonal antibody,ALK,high ALK specificity
